Measurements from patent US12269859B2, “Synthetic immune receptors and methods of use thereof” (Angeles Therapeutics, Inc., priority 2016, dated 2025).

Test system: target antigen-expressing cell line
Experiment: Jurkat NFAT-GFP assay, coculture with target cell lines expressing the respective target antigen (summary Table 10A)
Type: cell-based, human
Design: key: The signs +/−, +, 2+ etc. after the name of the cell lines indicate the relative degree of positivity on the Jurkat-NFAT-GFP assay as measured by the % GFP positive cells; +: relative degree of positivity on the Jurkat-NFAT-GFP assay as measured by the % GFP positive cells; 2+: relative degree of positivity on the Jurkat-NFAT-GFP assay as measured by the % GFP positive cells
Conditions: relative % GFP positive cells; for NFAT-GFP ASSAY Positive Cell lines: RAJI: SIR-expressing Jurkat-NFAT-GFP cells cocultured with RAJI; for NFAT-GFP ASSAY Positive Cell lines: NALM6: SIR-expressing Jurkat-NFAT-GFP cells cocultured with NALM6
Procedure, shortened: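 Read-out: % GFP+ cells by FACS. SIR-transduced, puromycin-selected Jurkat NFAT-GFP (IL-2 promoter reporter) cocultured ~4–18 h with target line, E:T ~1:2; parental cells as control; graded +/−, +, 2+ relative to parental.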

Molecule | NFAT-GFP ASSAY Positive Cell lines: RAJI | NFAT-GFP ASSAY Positive Cell lines: NALM6
020717-P08 (protein) MALPVTALLLPLALLLHAARPDILLTQSPATLSLSPGERATLSCKASQNVGTNVAWYQQKPGQPPKLLIYSATYRNSGIPARFSGSGSGTEFTLTITNVQSKDLADYFYFCQYNRYPYTSGGGTKLEIKRLEGKPIPNPLLGLDSTGSGEDLKNVFPPEVAVFEPSKAEIAHTQKATLVCLATGFYPDHVELSWWVNGKEVHSGVCTDPQPLKEQPALNDSRYCLSSRLRVSATFWQNPRNHFRCQVQFYGLSENDEWTQDRAKPVTQIVSAEAWGRADCGITSASYHQGVLSATILYEILLGKATLYAVLVSALVLMAMVKRKDSRGRAKRSGSGATNFSLLKQAGDVEENPGPTSMDWIWRILFLVGAATGAHSFEQVQLVESGGGLVEPGGSLRLSCMSGYAFSSYWMNWVRQMPGKGLEWMGQIYPGDGDTNYNGKFKGRVTITADESTSTAYMELSSLKAEDTAVYFCARKTISSVVDFYFDNWGQGTLVTVSSAEPKSPDKTHTCPPCPKDPKTREQKLISEEDLGSGIQNPDPAVYQLRDSKSSDKSVCLFTDFDSQTNVSQSKDSDVYITDKCVLDMRSMDFKSNSAVAWSNKSDFACANAFNNSIIPEDTFFPSSDVPCDVKLVEKSFETDTNLNFQNLSVIGFRILLLKVAGFNLLMTLRLWSSRAKRSGSGVKQTLNFDLLKLAGDVESNPGPSRGHMTEYKPTVRLATRDDVPRAVRTLAAAFADYPATRHTVDPDRHIERVTELQELFLTRVGLDIGKVWVADDGAAVAVWTTPESVEAGAVFAEIGPRMAELSGSRLAAQQQMEGLLAPHRPKEPAWFLATVGVSPDHQGKGLGSAVVLPGVEAAERAGVPAFLETSAPRNLPFYERLGFTVTADVEVPEGPRTWCMTRKPGA | RAJI (+) | –
012617-O05 (protein) MALPVTALLLPLALLLHAARPLEGKPIPNPLLGLDSTGSGEDLKNVFPPEVAVFEPSKAEIAHTQKATLVCLATGFYPDHVELSWWVNGKEVHSGVCTDPQPLKEQPALNDSRYCLSSRLRVSATFWQNPRNHFRCQVQFYGLSENDEWTQDRAKPVTQIVSAEAWGRADCGITSASYHQGVLSATILYEILLGKATLYAVLVSALVLMAMVKRKDSRGRAKRSGSGATNFSLLKQAGDVEENPGPTSMALPVTALLLPLALLLHAARPDILLTQSPATLSLSPGERATLSCKASQNVGTNVAWYQQKPGQPPKLLIYSATYRNSGIPARFSGSGSGTEFTLTITNVQSKDLADYFYFCQYNRYPYTSGGGTKLEIKRGGGGSGGGGSGGGGSQVQLVESGGGLVEPGGSLRLSCMSGYAFSSYWMNWVRQMPGKGLEWMGQIYPGDGDTNYNGKFKGRVTITADESTSTAYMELSSLKAEDTAVYFCARKTISSVVDFYFDNWGQGTLVTVSSTREQKLISEEDGSGIQNPDPAVYQLRDSKSSDKSVCLFTDFDSQTNVSQSKDSDVYITDKCVLDMRSMDFKSNSAVAWSNKSDFACANAFNNSIIPEDTFFPSSDVPCDVKLVEKSFETDTNLNFQNLSVIGFRILLLKVAGFNLLMTLRLWSSRAKRSGSGVKQTLNFDLLKLAGDVESNPGPSRGHMTEYKPTVRLATRDDVPRAVRTLAAAFADYPATRHTVDPDRHIERVTELQELFLTRVGLDIGKVWVADDGAAVAVWTTPESVEAGAVFAEIGPRMAELSGSRLAAQQQMEGLLAPHRPKEPAWFLATVGVSPDHQGKGLGSAVVLPGVEAAERAGVPAFLETSAPRNLPFYERLGFTVTADVEVPEGPRTWCMTRKPGA | RAJI (+/−) | –
020817-U02 (protein) MALPVTALLLPLALLLHAARPLEGKPIPNPLLGLDSTGSGEDLKNVFPPEVAVFEPSKAEIAHTQKATLVCLATGFYPDHVELSWWVNGKEVHSGVCTDPQPLKEQPALNDSRYCLSSRLRVSATFWQNPRNHFRCQVQFYGLSENDEWTQDRAKPVTQIVSAEAWGRADCGITSASYHQGVLSATILYEILLGKATLYAVLVSALVLMAMVKRKDSRGRAKRSGSGATNFSLLKQAGDVEENPGPTSMALPVTALLLPLALLLHAARPDILLTQSPATLSLSPGERATLSCRASQSVDNYGISFMNWYQQKPGQPPKLLIYAASNQGSGIPSRFSGSGSGTDFTLTISSLEPEDFAMYFCQQSNEVPRTFGGGTKLEIKGGGGSGGGGSGGGGSQVQLVESGGGLVEPGGSLRLSCMSGYAFSSSWMNWVRQMPGKGLEWMGRIYPGDGDTNYNGKFKERVTITADESTSTAYMELSSLKAEDTAVYFCARSEYWGNYWAMDYWGQGTLVTVSSTREQKLISEEDGSGIQNPDPAVYQLRDSKSSDKSVCLFTDFDSQTNVSQSKDSDVYITDKCVLDMRSMDFKSNSAVAWSNKSDFACANAFNNSIIPEDTFFPSSDVPCDVKLVEKSFETDTNLNFQNLSVIGFRILLLKVAGFNLLMTLRLWSSRAKRSGSGVKQTLNFDLLKLAGDVESNPGPSRGHMTEYKPTVRLATRDDVPRAVRTLAAAFADYPATRHTVDPDRHIERVTELQELFLTRVGLDIGKVWVADDGAAVAVWTTPESVEAGAVFAEIGPRMAELSGSRLAAQQQMEGLLAPHRPKEPAWFLATVGVSPDHQGKGLGSAVVLPGVEAAERAGVPAFLETSAPRNLPFYERLGFTVTADVEVPEGPRTWCMTRKPGA | RAJI (+), NALM6 | (+/−)
012417-I04 (protein) MALPVTALLLPLALLLHAARPLEGKPIPNPLLGLDSTGSGEDLKNVFPPEVAVFEPSKAEIAHTQKATLVCLATGFYPDHVELSWWVNGKEVHSGVCTDPQPLKEQPALNDSRYCLSSRLRVSATFWQNPRNHFRCQVQFYGLSENDEWTQDRAKPVTQIVSAEAWGRADCGITSASYHQGVLSATILYEILLGKATLYAVLVSALVLMAMVKRKDSRGRAKRSGSGATNFSLLKQAGDVEENPGPTSMALPVTALLLPLALLLHAARPDILLTQSPATLSLSPGERATLSCRASQSVDYDGDSYLNWYQQKPGQPPKLLIYDASNLVSGIPPRFSGSGSGTDFTLTISRLEPEDFAVYHCQQSTEDPWTFGGGTKLEIKGGGGSGGGGSGGGGSQVQLVESGGGLVEPGGSLRLSCMSGYAFSSYWMNWVRQMPGKGLEWMGQIWPGDGDTNYNPSLKSRVTITADESTSTAYMELSSLKAEDTAVYFCARRETTTVGRYYYAMDYWGQGTLVTVSSTREQKLISEEDGSGIQNPDPAVYQLRDSKSSDKSVCLFTDFDSQTNVSQSKDSDVYITDKCVLDMRSMDFKSNSAVAWSNKSDFACANAFNNSIIPEDTFFPSSDVPCDVKLVEKSFETDTNLNFQNLSVIGFRILLLKVAGFNLLMTLRLWSSRAKRSGSGVKQTLNFDLLKLAGDVESNPGPSRGHMTEYKPTVRLATRDDVPRAVRTLAAAFADYPATRHTVDPDRHIERVTELQELFLTRVGLDIGKVWVADDGAAVAVWTTPESVEAGAVFAEIGPRMAELSGSRLAAQQQMEGLLAPHRPKEPAWFLATVGVSPDHQGKGLGSAVVLPGVEAAERAGVPAFLETSAPRNLPFYERLGFTVTADVEVPEGPRTWCMTRKPGA | RAJI (+/−) | –
011317-B06 (protein) MALPVTALLLPLALLLHAARPLEQKLISEEDLGSGDRPDPAVYQLRDSKSSDKSVCLFTDFDSQTNVSQSKDSDVYITDKCVLDMRSMDFKSNSAVAWSNKSDFACANAFNNSIIPEDTFFPSPESSCDVKLVEKSFETDTNLNFQNLSVIGFRILLLKVAGFNLLMTLRLWSSSSRAKRSGSGVKQTLNFDLLKLAGDVESNPGPTSMALPVTALLLPLALLLHAARPDIVMTQSPATLSLSPGERATLSCRSSKSLQNVNGNTYLYWFQQKPGQSPQLLIYRMSNLNSGVPDRFSGSGSGTEFTLTISSLEPEDFAVYYCMQHLEYPITFGAGTKLEIKGGGGSGGGGSGGGGSEVQLVESGGGLVKPGGSLKLSCAASGYTFTSYVMHWVRQAPGKGLEWIGYINPYNDGTKYNEKFQGRVTISSDKSISTAYMELSSLRSEDTAMYYCARGTYYYGTRVFDYWGQGTLVTVSSTRGKPIPNPLLGLDSTGSGEDLKNVFPPEVAVFEPSEAEISHTQKATLVCLATGFYPDHVELSWWVNGKEVHSGVCTDPQPLKEQPALNDSRYCLSSRLRVSATFWQNPRNHFRCQVQFYGLSENDEWTQDRAKPVTQIVSAEAWGRADCGFTSESYQQGVLSATILYEILLGKATLYAVLVSALVLMAMVKRKDSRGRAKRSGSGATNFSLLKQAGDVEENPGPSRGHMTEYKPTVRLATRDDVPRAVRTLAAAFADYPATRHTVDPDRHIERVTELQELFLTRVGLDIGKVWVADDGAAVAVWTTPESVEAGAVFAEIGPRMAELSGSRLAAQQQMEGLLAPHRPKEPAWFLATVGVSPDHQGKGLGSAVVLPGVEAAERAGVPAFLETSAPRNLPFYERLGFTVTADVEVPEGPRTWCMTRKPGA | – | (2+)
022817-L08 (protein) MALPVTALLLPLALLLHAARPDIVMTQSPATLSLSPGERATLSCRSSKSLQNVNGNTYLYWFQQKPGQSPQLLIYRMSNLNSGVPDRFSGSGSGTEFTLTISSLEPEDFAVYYCMQHLEYPITFGAGTKLEIKLEEQKLISEEDLGSGEDLKNVFPPEVAVFEPSKAEIAHTQKATLVCLATGFYPDHVELSWWVNGKEVHSGVCTDPQPLKEQPALNDSRYCLSSRLRVSATFWQNPRNHFRCQVQFYGLSENDEWTQDRAKPVTQIVSAEAWGRADCGITSASYHQGVLSATILYEILLGKATLYAVLVSALVLMAMVKRKDSRGRAKRSGSGATNFSLLKQAGDVEENPGPTSMDWIWRILFLVGAATGAHSFEEVQLVESGGGLVKPGGSLKLSCAASGYTFTSYVMHWVRQAPGKGLEWIGYINPYNDGTKYNEKFQGRVTISSDKSISTAYMELSSLRSEDTAMYYCARGTYYYGTRVFDYWGQGTLVTVSSTREQKLISEEDLGSGIQNPDPAVYQLRDSKSSDKSVCLFTDFDSQTNVSQSKDSDVYITDKCVLDMRSMDFKSNSAVAWSNKSDFACANAFNNSIIPEDTFFPSSDVPCDVKLVEKSFETDTNLNFQNLSVIGFRILLLKVAGFNLLMTLRLWSSRAKRSGSGVKQTLNFDLLKLAGDVESNPGPSRGHMTEYKPTVRLATRDDVPRAVRTLAAAFADYPATRHTVDPDRHIERVTELQELFLTRVGLDIGKVWVADDGAAVAVWTTPESVEAGAVFAEIGPRMAELSGSRLAAQQQMEGLLAPHRPKEPAWFLATVGVSPDHQGKGLGSAVVLPGVEAAERAGVPAFLETSAPRNLPFYERLGFTVTADVEVPEGPRTWCMTRKPGA | – | (2+)
